B1: VTVGAVGVGK polypeptide (KRAS; SEQ ID NO: 4) (peptide)
peptide: VTVGAVGVGK
notes: Synthesized mutant KRAS neoantigen peptide; also called core polypeptide
B2: VSVGAVGVGK polypeptide (KRAS; SEQ ID NO: 6) (peptide)
peptide: VSVGAVGVGK
notes: as for B1
B3: VTVGAAGVGK polypeptide (KRAS; SEQ ID NO: 5) (peptide)
peptide: VTVGAAGVGK
notes: as for B1
B4: VTVGADGVGK polypeptide (KRAS; SEQ ID NO: 1) (peptide)
peptide: VTVGADGVGK
notes: as for B1
B5: VTGAVGVGK polypeptide (KRAS; SEQ ID NO: 3) (peptide)
peptide: VTGAVGVGK
notes: Synthesized mutant KRAS neoantigen peptide, printed as a 9-mer; also called core polypeptide

target: T1, HLA-A*11:01 (MHC-I molecules on the surfaces of T2 cells) (human); experiment: T2 cell MHC-I stabilisation assay, flow cytometry with FITC anti-HLA-A*11:01 antibody
T1 construct: It only names the antibody against 'the corresponding HLA typing (HLA-A*11:01)'; also called HLA molecules

Row | Binder | FI (fluorescence index)
1 | B1 | 2.02
2 | B2 | 2.42
3 | B3 | 2.12
4 | B4 | 2.83
5 | B5 | 2.37
